Laboratory results from the RNAGym collection of RNA variant scans (doi:10.7554/elife.80360).

B1: Hairpin Ribozyme (parent)
chain: GUCCUCUUUCACGUGCGCGUGAAAGAGAGAAGUGAACCAGAGAAACACACGUUGUGGUAUAUUACCUGGUA

Variants of: B1
Test: self-cleavage, relative activity (ratio to wild type); higher = more cleavage; co-transcriptional

Q: Which self-cleavage does the source give for G13C U67G here?
A: 0.281

Q: Which self-cleavage does the source give for G13C U67C here?
A: 0.126

Q: For U14A G25A, which self-cleavage is on record?
A: 0.56

Q: With U14A G25U as the variant, how does the self-cleavage read?
A: 0.521

Q: For U14A A22C, which self-cleavage is on record?
A: 0.829

Q: For U14A C38G, which self-cleavage is on record?
A: 0.0908

Q: Which self-cleavage does the source give for G13C G68A here?
A: 0.219

Q: For G13C G68C, which self-cleavage is on record?
A: 0.151

Q: Which self-cleavage does the source give for G13C U60A here?
A: 0.579

Q: With G13U U55C as the variant, how does the self-cleavage read?
A: 0.254

Q: For G13U U55A, which self-cleavage is on record?
A: 0.263

Q: Which self-cleavage does the source give for G13C U20A here?
A: 0.492

Q: Which self-cleavage does the source give for G13C U20C here?
A: 0.785

Q: For G13C U20G, which self-cleavage is on record?
A: 0.531

Q: Which self-cleavage does the source give for G13U A39C here?
A: 0.498

Q: With G13U A39U as the variant, how does the self-cleavage read?
A: 0.257

Q: With U14A C65U as the variant, how does the self-cleavage read?
A: 0.292

Q: Which self-cleavage does the source give for U14A C65G here?
A: 0.323

Q: With G13C G54A as the variant, how does the self-cleavage read?
A: 0.368

Q: With G13C G54C as the variant, how does the self-cleavage read?
A: 0.161

Q: With G13C C66G as the variant, how does the self-cleavage read?
A: 0.129

Q: For G13C C66A, which self-cleavage is on record?
A: 0.0627

Q: For G13C C66U, which self-cleavage is on record?
A: 0.431

Q: With U14A C37G as the variant, how does the self-cleavage read?
A: 0.295

Q: Which self-cleavage does the source give for U14A C37U here?
A: 0.481

Q: Which self-cleavage does the source give for U14A A23G here?
A: 0.814

Q: With U14A A23C as the variant, how does the self-cleavage read?
A: 0.789

Q: For U14A U55G, which self-cleavage is on record?
A: 0.179

Q: Which self-cleavage does the source give for G13U G54U here?
A: 0.588

Q: With U14A G51U as the variant, how does the self-cleavage read?
A: 0.925

Q: For G13C U63A, which self-cleavage is on record?
A: 0.173

Q: For G13C A71G, which self-cleavage is on record?
A: 0.823

Q: With G13C A64C as the variant, how does the self-cleavage read?
A: 0.149

Q: For G13U G68C, which self-cleavage is on record?
A: 0.19

Q: With G13U G17C as the variant, how does the self-cleavage read?
A: 0.494

Q: Which self-cleavage does the source give for U14A U52A here?
A: 1.03

Q: For G13U G69U, which self-cleavage is on record?
A: 0.246

Q: Which self-cleavage does the source give for G13U C65A here?
A: 0.845

Q: With G13C U53A as the variant, how does the self-cleavage read?
A: 0.747

Q: For G13C A43U, which self-cleavage is on record?
A: 0.0989

Q: Which self-cleavage does the source give for G13C A43G here?
A: 0.144

Q: With U14A A44U as the variant, how does the self-cleavage read?
A: 0.118

Q: For U14C A23U, which self-cleavage is on record?
A: 1.09

Q: Which self-cleavage does the source give for G13C G21A here?
A: 0.61

Q: With G13U A41C as the variant, how does the self-cleavage read?
A: 0.91

Q: For U14A A43C, which self-cleavage is on record?
A: 0.15

Q: Which self-cleavage does the source give for G13U G19C here?
A: 0.686

Q: For U14A A64U, which self-cleavage is on record?
A: 0.171

Q: For U14A A64G, which self-cleavage is on record?
A: 0.589

Q: With U14A A64C as the variant, how does the self-cleavage read?
A: 0.254

Q: Which self-cleavage does the source give for G13C C65G here?
A: 0.256

Q: Which self-cleavage does the source give for G13C C65A here?
A: 0.726

Q: Which self-cleavage does the source give for U14A A71G here?
A: 1.08

Q: With G13U A36G as the variant, how does the self-cleavage read?
A: 0.65

Q: For G13U G29U, which self-cleavage is on record?
A: 0.147

Q: Which self-cleavage does the source give for U14A A36G here?
A: 0.864

Q: For U14A G19C, which self-cleavage is on record?
A: 0.819

Q: Which self-cleavage does the source give for U14A G19U here?
A: 0.736

Q: Which self-cleavage does the source give for G13C G32C here?
A: 0.123

Q: With G13C U33A as the variant, how does the self-cleavage read?
A: 0.0736

Q: For G13C U33G, which self-cleavage is on record?
A: 0.207

Q: For G13C U55A, which self-cleavage is on record?
A: 0.196

Q: With G13C U58A as the variant, how does the self-cleavage read?
A: 0.35

Q: Which self-cleavage does the source give for G13C U58C here?
A: 0.869

Q: Which self-cleavage does the source give for G13C A61U here?
A: 0.161

Q: With G13U G51A as the variant, how does the self-cleavage read?
A: 0.745

Q: Which self-cleavage does the source give for U14A U67A here?
A: 0.188

Q: Which self-cleavage does the source give for U14A U67G here?
A: 0.277

Q: For U14A U67C, which self-cleavage is on record?
A: 0.247

Q: For U14A C18U, which self-cleavage is on record?
A: 0.924

Q: With G13U C18A as the variant, how does the self-cleavage read?
A: 0.915

Q: For G13U C18U, which self-cleavage is on record?
A: 0.967

Q: With G13U A44U as the variant, how does the self-cleavage read?
A: 0.147

Q: With G13C G69A as the variant, how does the self-cleavage read?
A: 0.214

Q: Which self-cleavage does the source give for G13C G69C here?
A: 0.199

Q: Which self-cleavage does the source give for U14C A30U here?
A: 0.148

Q: For U14C A30G, which self-cleavage is on record?
A: 0.116

Q: Which self-cleavage does the source give for G13U G15A here?
A: 0.491

Q: Which self-cleavage does the source give for G13U G15C here?
A: 0.608

Q: For G13C G19U, which self-cleavage is on record?
A: 0.752

Q: With U14A C48U as the variant, how does the self-cleavage read?
A: 0.123

Q: For G13U A49C, which self-cleavage is on record?
A: 0.117

Q: For U14A U58C, which self-cleavage is on record?
A: 0.78

Q: Which self-cleavage does the source give for U14A U58G here?
A: 0.505

Q: Which self-cleavage does the source give for U14A U58A here?
A: 0.792

Q: For U14A A24C, which self-cleavage is on record?
A: 0.703

Q: With G13U A35U as the variant, how does the self-cleavage read?
A: 0.83

Q: For G13U G27C, which self-cleavage is on record?
A: 0.19

Q: For G13C A59C, which self-cleavage is on record?
A: 0.11

Q: For G13U U53C, which self-cleavage is on record?
A: 0.477

Q: For U14C A35C, which self-cleavage is on record?
A: 0.687

Q: Which self-cleavage does the source give for G13U U67C here?
A: 0.211

Q: For G13C C46A, which self-cleavage is on record?
A: 0.137

Q: For G13C C46U, which self-cleavage is on record?
A: 0.218

Q: For U14A U63C, which self-cleavage is on record?
A: 0.212

Q: For G13U A28G, which self-cleavage is on record?
A: 0.725

Q: With G13U A28U as the variant, how does the self-cleavage read?
A: 0.546

Q: Which self-cleavage does the source give for G13U C66A here?
A: 0.176

Q: For G13U C66G, which self-cleavage is on record?
A: 0.11

Q: Which self-cleavage does the source give for U14A G54A here?
A: 0.581

Q: With U14A G54U as the variant, how does the self-cleavage read?
A: 0.471

Q: Which self-cleavage does the source give for U14A A35G here?
A: 0.956

Q: With U14A A35C as the variant, how does the self-cleavage read?
A: 0.998

Q: With G13C G15U as the variant, how does the self-cleavage read?
A: 0.695

Q: For U14A A39C, which self-cleavage is on record?
A: 0.515

Q: With U14A A39U as the variant, how does the self-cleavage read?
A: 0.408

Q: For U14A G42C, which self-cleavage is on record?
A: 0.281

Q: With U14A G42U as the variant, how does the self-cleavage read?
A: 0.308

Q: With U14A G17C as the variant, how does the self-cleavage read?
A: 0.472

Q: With G13U A30G as the variant, how does the self-cleavage read?
A: 0.191

Q: Which self-cleavage does the source give for G13U A31G here?
A: 0.499

Q: With G13U A31U as the variant, how does the self-cleavage read?
A: 0.109

Q: With G13U A26G as the variant, how does the self-cleavage read?
A: 0.675

Q: With U14A C46A as the variant, how does the self-cleavage read?
A: 0.232

Q: Which self-cleavage does the source give for U14A C46G here?
A: 0.108

Q: For U14A U20A, which self-cleavage is on record?
A: 0.67

Q: For G13U U62C, which self-cleavage is on record?
A: 0.291

Q: Which self-cleavage does the source give for G13U U62G here?
A: 0.102

Q: With U14A U62A as the variant, how does the self-cleavage read?
A: 0.0586

Q: For U14A G15C, which self-cleavage is on record?
A: 1.06

Q: With U14A G15A as the variant, how does the self-cleavage read?
A: 1

Q: Which self-cleavage does the source give for U14A G15U here?
A: 1.17

Q: Which self-cleavage does the source give for G13C C48G here?
A: 0.102

Q: With U14A U70A as the variant, how does the self-cleavage read?
A: 0.863

Q: With U14A C66A as the variant, how does the self-cleavage read?
A: 0.0937

Q: Which self-cleavage does the source give for G13C C50G here?
A: 0.278

Q: With U14A A41C as the variant, how does the self-cleavage read?
A: 1.34

Q: With U14A A41U as the variant, how does the self-cleavage read?
A: 1.04

Q: Which self-cleavage does the source give for G13U A45G here?
A: 0.0663

Q: For U14A A26U, which self-cleavage is on record?
A: 0.503

Q: Which self-cleavage does the source give for G13U C16U here?
A: 0.818

Q: Which self-cleavage does the source give for G13C G42A here?
A: 0.208

Q: With G13C G51C as the variant, how does the self-cleavage read?
A: 0.681

Q: With U14A A49U as the variant, how does the self-cleavage read?
A: 0.13

Q: For G13U A23G, which self-cleavage is on record?
A: 0.675

Q: Which self-cleavage does the source give for G13U G32C here?
A: 0.232

Q: For G13U A64G, which self-cleavage is on record?
A: 0.533

Q: For G13U A64C, which self-cleavage is on record?
A: 0.267

Q: Which self-cleavage does the source give for G13U A64U here?
A: 0.147

Q: Which self-cleavage does the source give for G13C G27U here?
A: 0.19

Q: Which self-cleavage does the source give for U14A G29A here?
A: 0.227

Q: Which self-cleavage does the source give for G13C G34A here?
A: 0.915

Q: Which self-cleavage does the source give for G13U U33C here?
A: 0.102

Q: With G13U U33G as the variant, how does the self-cleavage read?
A: 0.0972

Q: With G13C C18A as the variant, how does the self-cleavage read?
A: 0.932

Q: For G13U U52C, which self-cleavage is on record?
A: 0.655

Q: With G13C G29A as the variant, how does the self-cleavage read?
A: 0.106

Q: Which self-cleavage does the source give for U14A A59C here?
A: 0.179

Q: Which self-cleavage does the source give for U14A G56U here?
A: 0.205

Q: Which self-cleavage does the source give for U14A G56C here?
A: 0.168

Q: For U14A G56A, which self-cleavage is on record?
A: 0.0617

Q: Which self-cleavage does the source give for G13U A71G here?
A: 0.936

Q: With G13U A71C as the variant, how does the self-cleavage read?
A: 1.22

Q: With U14C A41C as the variant, how does the self-cleavage read?
A: 1.18

Q: For U14C A41G, which self-cleavage is on record?
A: 0.678

Q: For U14A A28G, which self-cleavage is on record?
A: 1.2

Q: With U14A G68C as the variant, how does the self-cleavage read?
A: 0.25

Q: For G13C G40U, which self-cleavage is on record?
A: 0.158

Q: Which self-cleavage does the source give for U14C A28G here?
A: 0.65

Q: Which self-cleavage does the source give for U14A A47U here?
A: 0.143

Q: With U14A A47C as the variant, how does the self-cleavage read?
A: 0.482

Q: With G13C G17U as the variant, how does the self-cleavage read?
A: 0.492

Q: With G13C U14G as the variant, how does the self-cleavage read?
A: 0.688

Q: With G13C U14A as the variant, how does the self-cleavage read?
A: 0.688

Q: With G13C C16U as the variant, how does the self-cleavage read?
A: 0.573

Q: With G13C A44C as the variant, how does the self-cleavage read?
A: 0.281

Q: With G13C A44U as the variant, how does the self-cleavage read?
A: 0.137
